Assay results as given in PMC5784833 (Journal of the American Chemical Society, 2017).

System: CC(=O)Oc1ccc([N+](=O)[O-])cc1
Assay: purified protein

In the case of “carbonic anhydrase II (CA-II) (Homo sapiens)”, the Km is reported as 2520 ± 260 µM.
